Source: US20120064106A1

Target: TLR5 on RAW 424 (TLR5+) cells
Assay: cell-based or functional assay

Row | Substance | TNF-α production by RAW 424 (TLR5+) cells, half-maximal stimulation
1 | P. aeruginosa type A flagellin (strain PAK), recombinant full-length (from UniProt P21184 2-394) (ligand) | 16 pM
2 | P. aeruginosa type B flagellin (strain PAO1), recombinant full-length (from UniProt P72151 1-488) (ligand) | 4e+07 pM
